From PMC2690451 (The EMBO Journal, 2009)

How the values were obtained:
MBP-RacA = biological target: T1, MBP-RacA (B. subtilis, UniProt P45870 1-184); test: density gradient flotation with liposomes
T1 sequence: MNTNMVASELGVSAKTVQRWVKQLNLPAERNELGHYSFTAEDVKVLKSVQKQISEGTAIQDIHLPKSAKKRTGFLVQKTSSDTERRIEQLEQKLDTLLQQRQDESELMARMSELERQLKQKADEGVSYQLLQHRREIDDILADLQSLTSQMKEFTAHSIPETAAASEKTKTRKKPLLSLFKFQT

SEC = biological target: the molecule itself; test: SEC

B1: DivIVA (natural protein)
chain: MPLTPNDIHNKTFTKSFRGYDEDEVNEFLAQVRKDYEIVLRKKTELEAKVNELDERIGHFANIEETLNKSILVAQEAAEDVKRNSQKEAKLIVREAEKNADRIINESLSKSRKIAMEIEELKKQSKVFRTRFQMLIEAQLDLLKNDDWDHLLEYEVDAVFEEKE
MBP-RacA
  binding result: binds

B2: DivIVA-MBP (natural protein)
chain: B1 chain
SEC
  binding result: binds

B3: ΔC-DivIVA-MBP (domain or fragment)
chain: MPLTPNDIHNKTFTKSFRGYDEDEVNEFLAQVRKDYEIVLRKKTELEAKVNELDERIGHFANIEETLNKSILVAQEAAEDVKRNSQKEAKLIVREAEKNADRIINESLSKSRKIAMEIEELKKQSKVFRTRFQMLIEAQLDLLK
SEC
  binding result: binds

B4: ΔN-DivIVA-MBP (domain or fragment)
chain: RKKTELEAKVNELDERIGHFANIEETLNKSILVAQEAAEDVKRNSQKEAKLIVREAEKNADRIINESLSKSRKIAMEIEELKKQSKVFRTRFQMLIEAQLDLLKNDDWDHLLEYEVDAVFEEKE
SEC
  binding result: binds
